Source: patent US20240069033A1, “METHOD FOR SCREENING FOR CANDIDATE MOLECULE CAPABLE OF FORMING COMPLEX IN CONJUNCTION WITH PLURALITY OF TARGET MOLECULES” (Chugai Seiyaku Kabushiki Kaisha, priority 2020, published 2024)
No end group written: not given here.

Experiments:
splitNanoluc1-8 = molecular target: T1, splitNanoluc1-8 (Oplophorus gracilirostris, UniProt Q9GV45, A31E/A60N/A81I/D135N/F58L/F95D/G42A/G62A/G78A/G94A/G98A/H120P/I103V/I117V/I134L/K70R/L54V/L73R/L99Q/M102E/N171T/P142E/Q151K/Q38E/Q45L/V71I/Y165I); assay: Complementation assay of split Nanoluc using mRNA display (pull-down with biotinylated splitNanoluc1-8, qPCR); format: binding; details: for Recovered nucleic acid amount (molecules): 33 nM Display molecule + 1 μM biotinylated splitNanoluc1-8, room temperature 1 hour, streptavidin pull-down, TEV elution, qPCR; for Recovery rate (%): apparent recovery rate corrected with display efficiency; for Apparent recovery rate (%): recovered/input nucleic acid amount
T1 construct: made in house
T1 sequence (Q9GV45 other isoform, or with tags, fused parts or gaps with the stated changes): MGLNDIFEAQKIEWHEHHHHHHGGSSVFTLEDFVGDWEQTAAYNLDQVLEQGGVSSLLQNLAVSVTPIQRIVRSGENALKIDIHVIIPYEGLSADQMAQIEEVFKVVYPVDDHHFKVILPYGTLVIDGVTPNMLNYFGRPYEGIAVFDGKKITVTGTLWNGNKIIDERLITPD
Method: Thus, each binding ability of splitNanoluc-9 (SEQ ID NO: 66), splitNanoluc-10 (SEQ ID NO: 67), and splitNanoluc9-10 fusion peptide (SEQ ID NO: 65) to splitNanoluc1-8 (SEQ ID NO: 85) was evaluated.
Display molecules in which mRNA and a peptide are linked were prepared, and the recovery rate with biotinylated splitNanoluc1-8 was examined.

[1] = test system: anti-ubiquitin antibodies (Mouse IgG1 monoclonal antibody; clone name FK2); assay: Complementation assay of splitUbiquitin using mRNA display (anti-ubiquitin antibody beads, qPCR); format: binding
From the text: As described above, screening a library for a candidate molecule capable of forming a complex with a plurality of target molecules requires a system that suppresses the recovery rate of a test molecule that forms a complex with only one target molecule. […] Ubiquitin I13A variants were used in the experiment. In this Example, the ubiquitin N-terminal fragment to which a GS linker is attached at the C-terminus is referred to as splitUb(N), the ubiquitin C-terminal fragment to which a GS linker is attached at the C-terminus is referred to as splitUb(C), and the protein in which splitUb(N) and splitUb(C) are linked by a GSGS linker and to which a GS linker is attached at the C-terminus is referred to as splitUb(N-C).
To simultaneously evaluate the interactions of the ubiquitin N-terminal fragment and the C-terminal fragment when they are independent, the conditions of mixing the display molecule of splitUb(N) and the display molecule of splitUb(C) at 1: 1 were reacted in the same way.

| Substance | Recovered nucleic acid amount (molecules) (splitNanoluc1-8) | Recovery rate (%) (splitNanoluc1-8) | Apparent recovery rate (%) (splitNanoluc1-8) | Recovered nucleic acid amount (molecules) ([1]; anti-ubiquitin antibody (FK2) magnetic beads, room temperature 1 hour, qPCR) | Recovery rate (%) ([1]; apparent recovery rate corrected with display efficiency) | Apparent recovery rate (%) ([1]; recovered/input nucleic acid amount) |
| --- | --- | --- | --- | --- | --- | --- |
| splitNanoluc9-10: mRNA Display molecule of Nanoluc 9th and 10th strands linked by GS linker, with TEV sequence (SEQ ID NO: 65) (MGSMLFRVTINSGGGSGGGGSGVSGWRLFKKISGSGSGSGSENLYFQGKK; also: mRNA display conjugate) | 3.45E+09 | 33.155 | 12.632 | – | – | – |
| splitNanoluc-9: mRNA Display molecule of Nanoluc 9th strand with GS linker and TEV sequence (SEQ ID NO: 66) (MGSMLFRVTINSGSGSGSGSENLYFQGKK; also: mRNA display conjugate) | 2.53E+06 | 0.049 | 0.008 | – | – | – |
| splitNanoluc-10: mRNA Display molecule of Nanoluc 10th strand with GS linker and TEV sequence (SEQ ID NO: 67) (MVSGWRLFKKISGSGSGSGSENLYFQGKK; also: mRNA display conjugate) | 5.04E+06 | 0.016 | 0.011 | – | – | – |
| splitUb (N): mRNA Display molecule of ubiquitin (I13A) N-terminal fragment with GS linker (SEQ ID NO: 45) (MMQIFVKTLTGKTATLEVEPSDTIENVKAKIQDKEGIPGSGSGSGSKK; also: mRNA display linkage) | – | – | – | 1.63E+10 | 1.040 | 0.931 |
